Biological target: RBPJκ in Raji cell extract (human (endogenous in Raji)) (UniProt Q06330)
Assay: native gel or EMSA

Chain of UniProt Q06330 (Q06330 whole entry): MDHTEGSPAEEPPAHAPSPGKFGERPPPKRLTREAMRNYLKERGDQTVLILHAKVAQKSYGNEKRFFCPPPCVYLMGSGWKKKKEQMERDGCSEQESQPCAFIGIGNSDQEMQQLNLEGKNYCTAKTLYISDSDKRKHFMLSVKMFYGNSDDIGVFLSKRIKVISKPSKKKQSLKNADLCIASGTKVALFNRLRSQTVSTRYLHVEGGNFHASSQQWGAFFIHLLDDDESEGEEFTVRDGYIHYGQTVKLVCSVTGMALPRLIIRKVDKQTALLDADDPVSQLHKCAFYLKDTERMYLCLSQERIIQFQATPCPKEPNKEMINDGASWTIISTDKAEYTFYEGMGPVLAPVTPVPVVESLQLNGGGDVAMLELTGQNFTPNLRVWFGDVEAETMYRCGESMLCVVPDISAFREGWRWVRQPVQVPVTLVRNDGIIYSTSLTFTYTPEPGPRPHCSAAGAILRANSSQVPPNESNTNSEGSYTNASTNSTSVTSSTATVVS

Substance: EBNA2 in Raji cell extract (from UniProt P12978 1-487) (natural protein)
- decrease in EMSA signal intensity, AdOx-treated against untreated extract: 30 to 67%

— PMC2822742
